According to patent US20250339501A1, “COMPOSITIONS AND METHODS FOR TREATING METABOLIC DISEASE” (The Regents of the University of California, priority 2021, published 2025):
“Also recorded” adds a separate entry of the source.

Assays:
JNK [1] = assay: TNFα-induced JNK phosphorylation in HepG2 cells; format: cell-based; settings: human HepG2 liver cells
Text: (§1) As described above, Dj1 administration stimulates AMPK phosphorylation in the liver cells. However, elevated AMPK phosphorylation in vivo was not observed (data not shown). Numerous studies have reported that the c-Jun N terminal kinase (JNK) is critical to the development of steatosis and chronic liver injury in NAFLD (22-25). […] However, not all MAPK pathways were activated. For example, phosphorylation of p42 was not altered by tDj1 treatment (FIG. 6O). Both rDj1 and tDj1 suppressed TNFα and Anisomycin-induced JNK (p54 and p46) phosphorylation in human HepG2 and mouse AML12 liver cells, respectively (FIGS. 6C-6D).

AMPK = AMPK phosphorylation immunoblot in HepG2 cells; format: cell-based, human
Description: (§2) Mouse myoblast cells (C2C12) were maintained in high glucose DMEM/high, 10% fetal bovine serum with penicillin/streptomycin. pRK5-Dj1-HA plasmid was purchased from Addgene (#29396). Seeded cells were cultured in 6-well plates for 24 hours prior to transfection. Transfections were performed using Lipofectamine 2000 and PLUS reagent according to manufacturer instructions (Invitrogen, Carlsbad, CA). Human HepG2 cells were cultured in DMEM/low media containing 10% fetal bovine serum with penicillin/streptomycin. Mouse AML12 cells were maintained in DMEM/F12, ITS supplement (Gibco, USA), 40 ng/ml dexamethasone, and 10% fetal bovine serum with penicillin/streptomycin. For in vitro experiments, HepG2 cells were treated with or without recombinant human Dj1 protein (Novus, NBC1-18334) in serum-free media containing 25 mM glucose, 200 μM palmitic acid, and 0.25% bovine serum albumin for an indicated time.

HFD-fed mice = assay: rDj1 or tDj1 intravenous every other day for 14 days in HFD-fed mice; format: in vivo, mouse
Description: C57BL/10cSn-Dmd^mdx/J (001801, mdx) and C57BL/10ScSnJ (000476, WT) mice were ordered directly from The Jackson Laboratory. Different ages of mdx and WT mice were obtained. Animals were weaned 21 days after birth and had free access to food and water and were housed on 12 h light-dark cycle. C57BL/6J males were introduced to a normal diet (NC, Research Diets D15100601) or high-fat diet (HFD, Research Diets D12331), and maintained on a diet for the indicated time. The HFD diet derives 58% of its kilocalories (kcal) from fat (soybean and coconut oil), 25.5% from carbohydrates (sucrose and maltodextrin), and 16.4% from protein (casein). NASH model mice were fed for up to 28 weeks with the NASH diet (Envigo, TD.120528) and 42% fructose (Sigma, F0127) in the water (1,2). The NASH diet is composed of 405.36 g/Kg sucrose and 12.5 g/Kg cholesterol. Recombinant mouse Dj1 protein (Novus, NBP2-59523) or truncated mouse Dj1 (tDj1, GenScript) protein was intravenously injected every day for 5 days or every other day for 2 weeks. Skeletal muscle-specific Park7 knockout mice were generated by crossing Park7 flox mice with Myl1-cre mice (JAX, #024713). Mice were raised in microisolator cages with a 12 h: 12 h light: dark cycle. All procedures were performed in accordance with the Guide for Care and Use of Laboratory Animals of the National Institutes of Health, and were approved by the Animal Subjects Committee of the University of California, Los Angeles.
Cryosections (10-μm thick transverse sections of frozen muscle cut in a cryostat (Leica) at −20° C.) were subjected to hematoxylin & eosin (H&E) staining (10, 54). Liver tissues were fixed in phosphate-buffered 10% formalin and embedded in paraffin wax. Sections were cut and stained with H&E.
Mouse serum Dj1 and CK were measured by mouse Park7/DJ-1 DuoSet ELISA (DY8136, R&D systems) and mouse CKMB/Creatine Kinase MB ELISA Kit (LS-F5745, LSBio) respectively. Mouse Serum AST and ALT were measured by AST activity assay kit (Sigma, MAK055) and ALT activity assay kit (Sigma, MAK052) respectively.
Plasma and liver NEFA, Cholesterol, and Triglyceride were analyzed by their respective kits (FUJIFILM Wako Diagnostics)
About 80 mg of liver samples were homogenized and sonicated in PBS (pH 7.4) for lipid extraction. An internal standard mixture (ISTD) and CHCl3:methanol (2:1) were added to the samples before being vortexed, mixed, sonicated, and centrifuged. The supernatant containing the lipid was removed and dried, the lipids were resuspended in ethanol and then sonicated.
Dj1 is a highly conserved protein that is ubiquitously expressed in most mammalian tissues. It belongs to the Dj1/ThiJ/PfpI family chaperones, and its expression is induced by oxidative stress (20,21). To determine whether the PfpI domain of Dj1 exerts a similar role as the full-length Dj1 protein (rDj1) in liver cells, truncated Dj1 (tDj1) comprising of only the PfpI domain was purified (FIG. 5O). HFD-fed mice were intravenous injected with rDj1 or tDj1 every other day for 14 days.

JNK [2] = assay: JNK phosphorylation immunoblot in liver of HFD-fed mice; format: in vivo, mouse
Text: as §1

HepG2 cells = assay: Reactive oxygen species in HepG2 cells; format: cell-based, human; settings: baseline and TNFα-induced
Text: A wide variety of mechanisms activate the JNK pathway. […] Moreover, ASK1 is activated by various stresses, including oxidative stress, ER stress, calcium overload, and receptor-mediated inflammatory signals such as TNFα and lipopolysaccharide (LPS) (26,27). rDj1 administration suppressed both baseline and TNFα-induced ROS levels in HepG2 cells, which may contribute to reducing liver inflammation (FIG. 6F).

ACC = ACC phosphorylation immunoblot in HepG2 cells; format: cell-based, human
Description: as §2

PPARα = PPARα expression and transcriptional activity in the liver; format: in vivo, mouse; settings: liver of NC-fed mice
Description: Also, the transcriptional activity of PPARα was determined to be elevated by Dj1 administration in the liver of both NC- and HFD-fed mice (FIGS. 6L, 6M, 6S, 6T). Furthermore, Dj1 elevated plasma β-hydroxybutyrate (a ketone body) levels in NC-fed mice but not in HFD-fed mice (FIG. 6N, 6U).

B1: rDj1: full-length recombinant Dj1 protein; mouse protein (Novus, NBP2-59523) injected in mice, human protein used in HepG2 cells (protein, UniProt Q99LX0 1-189, looked up)
chain: MASKRALVILAKGAEEMETVIPVDVMRRAGIKVTVAGLAGKDPVQCSRDVMICPDTSLEDAKTQGPYDVVVLPGGNLGAQNLSESPMVKEILKEQESRKGLIAAICAGPTALLAHEVGFGCKVTTHPLAKDKMMNGSHYSYSESRVEKDGLILTSRGPGTSFEFALAIVEALVGKDMANQVKAPLVLKD
modifications: full-length
notes: full-length recombinant Dj1 protein; mouse protein (Novus, NBP2-59523) injected in mice, human protein used in HepG2 cells
- TNFα-induced JNK (p54 and p46) phosphorylation (JNK [1]): suppressed; also recorded: inhibits
- phosphorylation of AMPK (AMPK): elevated
- level of TG in the liver (HFD-fed mice): significantly reduced
- liver histology, lipid accumulation (HFD-fed mice): less lipid accumulation
- plasma ALT levels (HFD-fed mice): reducing
- plasma AST levels (HFD-fed mice): reducing
- JNK (p46 subunit) phosphorylation (JNK [2]): significantly reduced
- ROS levels (HepG2 cells): suppressed
- phosphorylation of ACC (ACC): elevated
- transcriptional activity of PPARα (PPARα): elevated
